Measured values published in the supplement of paper PMC10567573.

B1: ADD1 (parent)
chain: GEGTGSPPKWQIGEQEFEALMRML

Variants of: B1
Test: protein stability index of a GFP-peptide fusion (GPS, HEK-293T) (PSI 1-6); higher = more stable
Conditions: c terminus: a fixed tail appended
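Note: lentivirally expressed fusions sorted by FACS into six bins by GFP to DsRed ratio, PSI derived from sequencing read proportions per bin multiplied by bin number.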

Protein stability index of substitutions, site by site:
G5: I 2.74, K 2.15, L 2.9, M 2.4, N 3.28, P 2.83, Q 3.49, R 2.77, S 3.01, T 3, V 3.09, W 2.21, Y 3.02
S6: A 2.87, C 2.75, D 3.25, E 3.45, F 1.88, G 2.55, H 2.76, I 2.75, K 2.12, L 3.03, M 3.91, N 2.8, P 2.95, Q 2.85, R 3.75, T 2.68, V 2.46, W 2.19, Y 2.59
P7: A 2.92, C 2.59, D 3.09, E 3.04, F 3.61, G 2.52, H 2.89, I 2.46, K 3.23, L 2.33, M 2.33, N 2.88, Q 3.04, R 2.63, S 2.45, T 2.23, V 2.62, W 2.08, Y 2.14
P8: A 3.07, C 2.27, D 3.84, E 3.66, F 2.36, G 3, H 2.56, I 2.31, K 2.52, L 2.6, M 2.63, N 3.24, Q 2.79, R 3.14, S 2.82, T 2.85, V 2.2, W 2.29, Y 2.49
K9: A 3.76, C 2.28, D 3.33, E 3.82, F 2.8, G 3.14, H 3.08, I 2.58, L 2.34, M 2.93, N 3.53, P 3.42, Q 3.25, R 3.07, S 3.48, T 2.95, V 2.49, W 2.63, Y 3.43
W10: A 3.71, C 2.93, D 4.58, E 4.28, F 3.26, G 3.97, H 3.99, I 2.86, K 3.57, L 3.06, M 3.27, N 4.19, P 3.81, Q 3.5, R 4.22, S 4.2, T 3.42, V 3.67, Y 3.14
Q11: A 2.86, C 2.76, D 3.82, E 3.24, F 3.22, G 2.66, H 3.23, I 2.97, K 4.08, L 2.98, M 3.54, N 3.53, P 3.33, R 3.46, S 3.42, T 3.51, V 2.86, W 3.04, Y 2.57
I12: A 3.9, C 3.27, D 4.45, E 4.45, F 3.09, G 4.08, H 3.75, K 3.03, L 3.06, M 3.38, N 3.55, P 3.72, Q 4.11, R 3.12, S 3.83, T 3.7, V 3.22, W 2.81, Y 3.69
G13: A 3.85, C 3.22, D 3.65, E 4.05, F 2.69, H 3.29, I 2.92, K 3.21, L 2.84, M 2.94, N 2.78, P 3.74, Q 3.58, R 2.99, S 3.22, T 2.74, V 2.5, W 3.37, Y 2.66
E14: A 3.16, C 2
